Results: paper PMC12527940, “Conformational plasticity of a BiP–GRP94 chaperone complex” (Nature Structural & Molecular Biology, 2025)
Several values for one entry are separate records, joined by “and”; a condition that tells them apart may be missing. Identical values can stand only once. Each block holds one molecule with its values, some of them ahead of it.

Key:
[1] = molecular target: His6-tagged BiP (residues 27–655) (UniProt P20029); test: pull-down; Ni-NTA pull-down of His6-tagged BiP protein (4 µM) with 4 µM Strep-tagged or untagged GRP94 protein; 60 min at 37 °C, 50 mM HEPES pH 7.5, 50 mM NaCl, 2 mM MgCl2, 50 µM ATP, 3 µM BSA; Coomassie bands quantified
[2] = molecular target: Strep–linker–TEV site–GRP94 (73–802) (UniProt P08113); test: negative-stain EM; 16 µM BiP and 32 µM HT2 reacted with 32 µM HyT36, 30 min at 37 °C with 50 µM ATP, then 16 µM GRP94 Δ72; GraFix (5–45% glycerol, 0.5% glutaraldehyde), fraction 12; single-particle negative stain, models fitted with Rosetta at 20 Å
BiP-E243K = BiP-E243K (UniProt P20029); test: pull-down; Ni-NTA pull-down of His6-tagged BiP protein (4 µM) with 4 µM Strep-tagged or untagged GRP94 protein; 60 min at 37 °C, 50 mM HEPES pH 7.5, 50 mM NaCl, 2 mM MgCl2, 50 µM ATP, 3 µM BSA; Coomassie bands quantified
[3] = molecular target: the molecule itself; test: cross-linking; XL-MS: DSBU crosslinking (4 µM each), high-molecular-weight SDS–PAGE bands digested and analysed by LC–MS/MS, 5% FDR on residue pairs; GRP94 Δ72^noPT samples with 100 µM PU-WS13

Molecule: GRP94 Δ72^noPT (from UniProt P08113 73-802) (domain or fragment)
percent reduction of GRP94 bound, against GRP94 Δ72 with its tag [1]: 65%

Molecule: GRP94-K467E (Strep-tagged GRP94 Δ72 interface I mutant) (from UniProt P08113 73-802) (domain or fragment)
percent reduction of GRP94 Δ72 copurified, against the wild-type pair [1]: 85%

Molecule: His6-tagged BiP (residues 27–655) (from UniProt P20029 27-655) (natural protein)
stoichiometry N (BiP per GRP94 dimer) [2]: 1 and 2

Molecule: Strep-tagged GRP94 Δ72-R116G interface II mutant (from UniProt P08113 73-802) (domain or fragment)
percent decrease of binding, against GRP94 Δ72 [1]: 30%

More lines, main results first:

percent reduction of GRP94 Δ72 copurified, against the wild-type pair [1]: 85%
Molecule: GRP94-K463E (Strep-tagged GRP94 Δ72 interface I mutant) (from UniProt P08113 73-802) (domain or fragment)

stoichiometry N [2]: 2
percent reduction of GRP94 Δ72 copurified, against the wild-type pair (BiP-E243K): 85%
Molecule: Strep–linker–TEV site–GRP94 (73–802) (from UniProt P08113 73-802) (domain or fragment)

percent less GRP94 pulled down, against GRP94 Δ72 [1]: 75%
B1: Strep-tagged GRP94 FL (residues 23–802) (natural protein, mouse (cDNA of C2C12 cells), UniProt P08113 23-802, looked up)
chain: DEVDVDGTVEEDLGKSREGSRTDDEVVQREEEAIQLDGLNASQIRELREKSEKFAFQAEVNRMMKLIINSLYKNKEIFLRELISNASDALDKIRLISLTDENALAGNEELTVKIKCDKEKNLLHVTDTGVGMTREELVKNLGTIAKSGTSEFLNKMTEAQEDGQSTSELIGQFGVGFYSAFLVADKVIVTSKHNNDTQHIWESDSNEFSVIADPRGNTLGRGTTITLVLKEEASDYLELDTIKNLVRKYSQFINFPIYVWSSKTETVEEPLEEDEAAKEEKEESDDEAAVEEEEEEKKPKTKKVEKTVWDWELMNDIKPIWQRPSKEVEEDEYKAFYKSFSKESDDPMAYIHFTAEGEVTFKSILFVPTSAPRGLFDEYGSKKSDYIKLYVRRVFITDDFHDMMPKYLNFVKGVVDSDDLPLNVSRETLQQHKLLKVIRKKLVRKTLDMIKKIADEKYNDTFWKEFGTNIKLGVIEDHSNRTRLAKLLRFQSSHHSTDITSLDQYVERMKEKQDKIYFMAGSSRKEAESSPFVERLLKKGYEVIYLTEPVDEYCIQALPEFDGKRFQNVAKEGVKFDESEKTKESREATEKEFEPLLNWMKDKALKDKIEKAVVSQRLTESPCALVASQYGWSGNMERIMKAQAYQTGKDISTNYYASQKKTFEINPRHPLIRDMLRRIKEDEDDKTVMDLAVVLFETATLRSGYLLPDTKAYGDRIERMLRLSLNIDPEAQVEEEPEEEPEDTSEDAEDSEQDEGEEMDAGTEEEEEETEKESTEKDEL
notes: cloned from C2C12 complementary DNA into pET21d; also called Strep–GRP94 FL; FL GRP94 wild-type protein; source: E. coli BL21(DE3), purified (StrepTrap HP, SEC); not shown: Strep, N-terminal, kept
binding result [3]: binds
